System: MS2 coat protein
Assay: apparent KD of MS2 coat protein; designed switch direction (-1 OFF switch, 1 ON switch): -1; higher = weaker reporter binding
In short: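 RNA switches sharing common flanks were transcribed by stalled E. coli RNA polymerase on Illumina chips. A doubling series of SNAP-549-labelled MS2 coat protein, from 0.7 or 1.5 nM to 3 µM, was applied in Tris-HCl pH 7.5 buffer with KCl, MgCl2, BSA, DTT, tRNA and Tween-20. Each step lasted 0.8–1.5 h at the bottom of the series and 10–20 min at the top. Normalised cluster fluorescence was curve-fitted, giving apparent KD as the per-design median over clusters.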

[1] = Eterna round: R95, input ligand: microRNA oligo, concentration not stated
[2] = input ligand: microRNA oligo, concentration not stated
[3] = Eterna round: R95, input ligand: FMN 200 uM
[4] = Eterna round: R95, input ligand: none

Row | Sequence | apparent KD of MS2 coat protein [1] | apparent KD of MS2 coat protein (input ligand: FMN 200 uM) | apparent KD of MS2 coat protein (input ligand: none) | further results
1 | GAUCAACAUGAGGAUCACCCAUGUCAGGAUAUGAUACUAUGUACUUCGGUACAUAGUAUCAGAAGGGACAGAUC [Ex1-3: 1] (puzzle: Exclusion 1) | 101 nM | – | – | –
2 | CGACUGUGAGGAUAUGGUGAGUAGUGCCUGAGCGCUGCUCACCAGAAGGCACAUGAGGAUCACCCAUGUAUGAC [Mat - Exclusion 4 - Mod of JL - D8] (puzzle: Exclusion 4) | 72.8 nM | – | – | –
3 | ACAUGAGGAUCACCCAUGUGACCACGAUGGCUGAUGUAAAGACAGGAUAUGUGUGAAUAUCUAUCACAGAAGGGUCUUGACUGG [Deportation 55 - Jieux - Exclusion NG 3] (Eterna round: R96, puzzle: Exclusion NG 3) | – | 24.1 nM | 30.6 nM | apparent KD of MS2 coat protein [2]: 22 nM
4 | CCGUGGCAAGGAUAUACGUAGGAGAGGAAGGCAAGAGAAGGACAUGAGGAUCACCCAUGUAGAAGGUGCAGAUC [JR_Exclu2_Sub030] (puzzle: Exclusion 2) | 48.3 nM | – | – | –
5 | UAGAUACAUGAGGAUCACCCAUGUGAGGAUAUGAGAAUUAUAUUAAAUGAAUGUAGUAUCAGAAGGCACAAAGG [JR_Ex1_Sub049] (Eterna round: R97, puzzle: Exclusion 1) | – | 197 nM | 130 nM | –
6 | AGUACUAUCACGAAAGUGUUAGUACAAUAAGCUUGUGAAACAUGAGGAUCACCCAUGUCCUCAUAAGCUCGUCUUAU [salish99_TOv2_r3_019] (puzzle: Sensor v3, turn-off variant 2) | 868 nM | – | – | apparent KD of MS2 coat protein [3]: 16.9 nM; apparent KD of MS2 coat protein [4]: 15.7 nM
7 | CGUAUGUGAGGAUAUGACAAUGGUAUCUUCGGAUACCAUUGUCAGAAGGAACAUGAGGAUCACCCAUGUAGAUC (puzzle: Exclusion 4) | 44.8 nM | – | – | –
8 | GCGUCGAGUGUGAGGAUAUGCUGGUCCUUGGAUCAGCAGAAGGCACAUGAGGAUCACCCAUGUGAAAACGAUGC [Mat - Exclusion 4 - JL Mod - D68] (puzzle: Brourd's mod of Exclusion 4) | 18.8 nM | – | – | –
9 | CACAAGCUUUUUUGAUGCAUUUUAGUGGGUGUGGGUUGGACAUGAGGAUCACCCAUGUUUAUGAAGCUCGAUCUUUU [JR_SV3TOV2_Sub081] (puzzle: Sensor v3, turn-off variant 2) | 170 nM | – | – | apparent KD of MS2 coat protein [3]: 92.7 nM; apparent KD of MS2 coat protein [4]: 124 nM
10 | CUCCUACAUGAGGAUCACCCAUGUCAGGAUAUCUCAGUGGCACCUAAAGGCGCCACCCAGAGAAGGGACGUGCA [Soistiis] (puzzle: Exclusion 1) | 10.6 nM | – | – | –
11 | UUAUACGUUGAGGAUAUGCGAUUUAGUAUAGUUGCAGAAGGCGAUACAUGAGGAUCACCCAUGUUUAUGGGCAU [LRO-Ex6-07] (puzzle: Exclusion 6) | 269 nM | – | – | apparent KD of MS2 coat protein [3]: 394 nM; apparent KD of MS2 coat protein [4]: 259 nM
12 | CCCGUGUGAGGAUAUCCCUCCACAGUACGAAUCGACCCGUGGGAGAAGGCACAUGAGGAUCACCCAUGUGAACG [Eternabot (Original) Solution 30] (Eterna round: R97, puzzle: Exclusion 4) | – | 42.5 nM | 32.8 nM | –
13 | GUAUCGUGAGGAUAUCUAGACUGACUUAGUACAUGUCAGCUGGAGAAGGCACAUGAGGAUCACCCAUGUGAUUA (puzzle: Exclusion 4) | 22.2 nM | – | – | –
14 | AAUAACAGAGGAUAUACUAUUUUAUGUGUUUGUUGUUUUGAACAUGAGGAUCACCCAUGUAGAAGGCUGAUUAA [JMF 52] (puzzle: Exclusion 2) | 34.3 nM | – | – | –
15 | AUUUUAACAUAGGAUAUCGAAUUUAUUAUUUAACGAGAAGGAUGAACAUGAGGAUCACCCAUGUGGUAUCAUGA [Mat - Exclusion 6 - JL Mod - D21] (puzzle: Exclusion 6) | 40.6 nM | – | – | apparent KD of MS2 coat protein [3]: 72.8 nM; apparent KD of MS2 coat protein [4]: 45.9 nM
16 | ACGCCAGGAGGAUAUGCAAUAAGUAACAUGAGGAUCACCCAUGUUCGGGCGAUCCUCGUGGCAGAAGGCCUAGCCG [Attira] (Eterna round: R97, puzzle: Exclusion 5) | – | 95.5 nM | 24.4 nM | –
17 | UACUGGACAGGAUAUGUUCUUGAGCACUUGAGGAUCACCCAAGUCAUCAAGAACUCAGGCACAGAAGGGUUUAUGA [salish99_ex5_r4_004] (Eterna round: R97, puzzle: Exclusion 5) | – | 22 nM | 15.4 nM | –
18 | CUUGUUUAUGUAGGAUAUGCCUGGCGUGCCUUUGCAGAAGGACAUGAGGAUCACCCAUGUAACAUGAGGCUCACCCUUGUCGCC [salish99_ExNG1_r04_116] (Eterna round: R96, puzzle: Exclusion NG 1) | – | 146 nM | 114 nM | apparent KD of MS2 coat protein [2]: 90.1 nM
19 | ACGCCCUGAGGAUAUCUUAUCCCGUACAUGAGGAUCACCCAUGUUUUCCUCCGGGCUUCGAGAGAAGGCAGGCCCA [Armus14] (Eterna round: R97, puzzle: Exclusion 5) | – | 88 nM | 39 nM | –
20 | CCAUCGAGUGUGAGGAUAUGCUGGUCCUUGGAUCAGCAGAAGGCACAUGAGGAUCACCCAUGUGGAUACGGUGG [JL bmx4 3.19] (puzzle: Brourd's mod of Exclusion 4) | 30 nM | – | – | –
21 | AUAAUGUGAGGAUAUCAGUCGACUAGCCUCGGCUAGUCGACUGAGAAGGCACAUGAGGAUCACCCAUGUAGAUC [E4/17-A2] (Eterna round: R97, puzzle: Exclusion 4) | – | 75.8 nM | 825 nM | –
22 | CCAAGCUGUGUGAGGAUAUGCUGAACCUUGGUUCAGCAGAAGGCACAUGAGGAUCACCCAUGUGAAAAGCUUGG [Mat - Exclusion 4 - JL Mod - D95] (puzzle: Brourd's mod of Exclusion 4) | 15.3 nM | – | – | –
23 | GUGUACAGAGGAUAUACACGAAUCUAGCGAAGCUAGGUUUGACAUGAGGAUCACCCAUGUAGAAGGCUGUACAC [Dot plot directed A detuned for Vienna 1] (puzzle: Exclusion 2) | 16.7 nM | – | – | –
24 | ACAUGUGUUGUAGGAUAUAGGAUACAUGAGGAUCACCCAUGUGGAUUCAUGUCUAAGGAAGCGUCCUAGAAGGACGACAACAUG [Ex NG2 #25] (Eterna round: R96, puzzle: Exclusion NG 2) | – | 83 nM | 27.6 nM | apparent KD of MS2 coat protein [2]: 21.6 nM
25 | ACAUUGCGAGGAUAUACAUGAGGAUCACCCAUGUGGUGGCAGUUACGGUAGGACUAGUGUAGAAGGUGCCAUGG [EX3 #23] (Eterna round: R97, puzzle: Exclusion 3) | – | 441 nM | 401 nM | –
26 | ACACAGCGAGGAUAUACAUGAGGAUCACCCAUGUGGUGGCAGUUACGGUAGGACUAGUGUAGAAGGUGCAGUGG [EX3 #29] (Eterna round: R97, puzzle: Exclusion 3) | – | 485 nM | 800 nM | –
27 | ACAUGAGGAUCACCCAUGUAAACAUAAUGGCUCAUGUAGAGUCAGGAUAUGCGUGGCGAACUCGCGCAGAAGGGACAAGACUGG [Deportation 23 - Jieux - Exclusion NG 3] (Eterna round: R96, puzzle: Exclusion NG 3) | – | 26.7 nM | 26.4 nM | apparent KD of MS2 coat protein [2]: 20.6 nM
28 | AAAAAACAUGAGGAUCACCCAUGUCAGGAUAUCCGCGAAGGAAAGAAAAAAAAAAAAGGGAGAAGGGACAAAAA [April's Ex-date #4] (puzzle: Exclusion 1) | 52.8 nM | – | – | apparent KD of MS2 coat protein [3]: 49.5 nM; apparent KD of MS2 coat protein [4]: 28.5 nM

Reference: the supplement of paper PMC9170038
